Data reported in IntAct's records for PubMed 21946561.

B1: Neuronal tyrosine-phosphorylated phosphoinositide-3-kinase adapter 1 (Mus musculus), Q6PFX7 (parent)
chain: MNLLYRKTKLEWRQHKEEEAKRSSSKEAAPTGPVGPGAVPGPGVRVRDIASLRRSLRMGFMTMPASQEHTPHPCRSTMAPRSLSCHSVGSMDSVGGGPGGGLTEDSSTRRPPAKPRRHPSTKLSMAGPGAETPPSKKAGSQKPAPECRESSRKVPPQKPRRSPNTQLSVSFDESCAPAPSPRGANLPLQRLSRASRITGDLDAGAQEEEPVYIEMVGDVFRGGGRSGGGLAGPPLGSGGPTPPAAADSDSEDSEAIYEEMKYPLPEEAGDGRANGPPPLTAPSPPQQTHILQPHPHPHRRPASALPSRRDGTPTKTTPCEIPPPFPNLLQHRPPLLAFPQAKSASRAPGDGVSRLPVLCHSKEPAGSTPAPQVPARERETPPLPPPPPAANLLLLGPSGRARSHSTPLPPQGSGQTRGERELPNSHSMICPKAAGVPAAHPAPAALLPGPPKDKAVSYTMVYSAVKVTTHSVLPAGPPLGVGEPKTEEISVLHGMLCASSRPPVPGKSSPHSGAMGSAAGVLHHRSCLASPHSLPDPTGGSLTPLWTYPATAAGLKRPPAYDSLKAGGVLNKGCGMGAPSPMVKIQLQEQGTDGGAFASISCAHVIASAGTPEEEEEMGAAFGAGWALQRKVLYGGRKAKEVDTEEDGARAWNGSTEGPGKVEHEDRGPVPSGIPVRSQGAEGLLARIHHDRGGSRTALPVPCQTFPACHRNGDFTGGYRLGRSASTSGVRQAALHTPRPCSQPRDALSQTHPVLPLPLPPQPARERDGKLLEVIERKRCVCKEIKARHRPDRGLCKQESMPILPSWRRVPEPRKSGTPPCRRQHTVLWDTAI
B2: Neuronal tyrosine-phosphorylated phosphoinositide-3-kinase adapter 2 (Mus musculus), Q8BM65-4 (parent)
chain: MIPSKMMSANPEEDPLDTFFQYIEDMGMKAYDGLVIQNASDIARENDRLRNETKLAYLKEKNEKRRRQEETIKRIGGEVGRGQDASYAGKHFRMGFMTMPAPQDRLPHPCSSGFTVRSQSLHSVGGTEDDSSCGSRRQPPPKPKRDPSTKLSTSSETVNSTAASKSGRSLERAEGKFTVPASHSPPRASTSGHLFPSPGSQERNIKVSAKPRPHSDEYSKKIPPPKPKRNPNTQLSTSFDETYIKKHVPRRTSLPRDSSLSQVCSPAADPEEEEPVYIEMVGNILRDFRKEEDDQSEAVYEEMKYPIFDDLGHDSKCDFDHHSCSSQCATPTVPDLDFVKSSGPCTPKGLLCDIPPPFPNLLSHRPPLLVFPPAPVHCSPNSDESPLTPLEVTKLPVLENVSYMKQPPGACPSSLPSHGSSHAKDQTGALGPAPGASILSSSPPPPSTLYRTQSPHGYPKSHSTSPSPVSMGRSLTPLSLKRPPPYDAVHSGSLSRSSSSVPHTTPRPVSQDGAKMVNAAVNTYSAAQSGSRSRTPTSPLEELTSLFTSGRSLLRKSSSGRRSKEPAEKSTEELKVRSHSTEPLPKLDSKERGHYGSSSSREPVKAQEWDGTPGPPVVTSRMGRCSVSPTLLAGNHSSEPKVSCKLGRSASTSGVPPPSVTPLRQASDLQQSQVACMQWFHGDHTMLEMIEKKRCLCKEIKARQKTEKGLCKQDSMPILPSWKKNAGAKKYSPPPYSKQQTVFWDTAI

Variants of: B1
Conditions: with p85a_human PIK3R1, P27986
Target sequence in this assay (P27986 whole entry): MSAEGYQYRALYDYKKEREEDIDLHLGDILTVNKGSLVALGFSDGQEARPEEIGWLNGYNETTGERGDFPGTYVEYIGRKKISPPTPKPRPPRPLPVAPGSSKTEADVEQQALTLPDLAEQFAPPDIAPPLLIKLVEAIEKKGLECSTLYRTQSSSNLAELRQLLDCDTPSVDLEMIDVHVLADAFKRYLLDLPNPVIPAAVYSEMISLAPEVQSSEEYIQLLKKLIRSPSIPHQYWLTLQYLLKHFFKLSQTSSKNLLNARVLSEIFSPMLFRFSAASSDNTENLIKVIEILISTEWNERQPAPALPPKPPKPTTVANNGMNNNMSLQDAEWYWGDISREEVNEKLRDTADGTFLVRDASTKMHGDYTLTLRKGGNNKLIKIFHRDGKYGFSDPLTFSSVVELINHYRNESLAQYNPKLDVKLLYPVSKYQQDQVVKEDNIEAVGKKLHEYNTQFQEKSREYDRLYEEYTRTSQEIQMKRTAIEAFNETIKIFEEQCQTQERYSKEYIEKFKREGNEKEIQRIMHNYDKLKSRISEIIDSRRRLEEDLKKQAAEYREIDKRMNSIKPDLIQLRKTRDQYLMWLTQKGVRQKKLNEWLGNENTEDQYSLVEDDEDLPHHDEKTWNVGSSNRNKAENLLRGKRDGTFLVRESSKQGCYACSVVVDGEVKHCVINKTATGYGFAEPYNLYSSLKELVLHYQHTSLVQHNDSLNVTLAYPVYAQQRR

effect of a mutation on the interaction	Variant
disrupting interaction	Y212F
disrupting interaction	Y257F

Variants of: B1
Conditions: with p85a_human PIK3R1, P27986
Remark: another data set of the same source
Target sequence in this assay (P27986 whole entry): as above

effect of a mutation on the interaction	Variant
decreasing interaction	Y257F

Variants of: B2
Conditions: with p85a_human PIK3R1, P27986
Target sequence in this assay (P27986 whole entry): as above

effect of a mutation on the interaction	Variant
disrupting interaction	Y277F
disrupting interaction	Y300F
